Reference: patent US20120003668A1, “HIGH RESOLUTION COMPLEX STRUCTURE AND ALLOSTERIC EFFECTS OF LOW MOLECULAR WEIGHT ACTIVATORS ON THE PROTEIN KINASE PDK1” (UNIVERSITAET DES SAARLANDES, priority 2008, published 2012)

Target: T1, PDK1[Phe224Trp] (Homo sapiens, UniProt O15530, F224W)
T1 construct: The catalytic domain (CD) of PDK1 50-359 and its mutants Phe224Trp and Thr226Trp were expressed in insect cells and purified; made in house; host or cells: insect cells
T1 sequence (O15530 50-359 F224W): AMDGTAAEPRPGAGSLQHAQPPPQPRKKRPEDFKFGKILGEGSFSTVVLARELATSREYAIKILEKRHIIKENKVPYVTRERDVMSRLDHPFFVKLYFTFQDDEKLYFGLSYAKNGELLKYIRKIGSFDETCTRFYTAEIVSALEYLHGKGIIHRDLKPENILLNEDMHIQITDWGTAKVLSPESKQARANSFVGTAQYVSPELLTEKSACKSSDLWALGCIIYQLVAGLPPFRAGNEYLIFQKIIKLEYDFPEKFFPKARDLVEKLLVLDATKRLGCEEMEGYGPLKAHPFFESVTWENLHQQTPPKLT
Assay: Surface plasmon resonance (BiaCore) on biotin-P-HM-S6K chip, Phe224Trp mutant
Type: binding
Details: protein pre-incubated with PIFtide
Description: Surface Plasmon resonance (BiaCore) and alpha-screen interaction and displacement assays: Binding of GST-PDK1 to a P-HM-polypeptide derived from S6K1 shown in FIG. 6 was analysed by surface plasmon resonance on a BiaCore 3000 system using a streptavidin-coated Sensor chip (SA) and biotin-P-HM-polypeptide, as previously described (Biondi, R. M. et al., Embo. J. 20:4380-4390 (2001). The interaction of His-PDK1 with biotin-PIFtide and the displacement by compounds shown in FIG. 3 was performed using the alpha-screen Ni-Chelate kit (Perkin Elmer) on an Envision 2104 multilabel system (Perkin Elmer).
BiaCore analysis was performed as described previously (Biondi, R. M. et al., Embo. J. 19:979-988 (2000)). […] Since both mutants were performed on the same construct of PDK1, their mass should be very similar and therefore should also produce 600RU when all biotin-(P)HM-S6K polypeptides on the same chip are bound to the mutant PDK1 proteins. Unfortunately, when mutant PDK1 Phe224Trp and PDK1 Thr226Trp were analysed, the injection of the mutants at concentrations higher than 1.3 μM prompted unspecific effects, therefore making difficult the evaluation. […]

REPRILSEEEQEMFRDFDYIADWC [PIFtide, polypeptide derived from the C-terminal 24 amino acids of the PDK1 substrate PRK2]
displacement by PIFtide of PDK1[Phe224Trp] binding to the chip: displaced
